Assay results from PMC4975489, “The Arabidopsis Protein Phosphatase PP2C38 Negatively Regulates the Central Immune Kinase BIK1” (PLoS Pathogens, 2016).

Molecular target: T1, recombinant GST-BIK1 (Arabidopsis thaliana, UniProt O48814 1-395)
T1 construct: BIK1, receptor-like cytoplasmic kinase of Arabidopsis thaliana; source: recombinant protein
T1 sequence (looked up): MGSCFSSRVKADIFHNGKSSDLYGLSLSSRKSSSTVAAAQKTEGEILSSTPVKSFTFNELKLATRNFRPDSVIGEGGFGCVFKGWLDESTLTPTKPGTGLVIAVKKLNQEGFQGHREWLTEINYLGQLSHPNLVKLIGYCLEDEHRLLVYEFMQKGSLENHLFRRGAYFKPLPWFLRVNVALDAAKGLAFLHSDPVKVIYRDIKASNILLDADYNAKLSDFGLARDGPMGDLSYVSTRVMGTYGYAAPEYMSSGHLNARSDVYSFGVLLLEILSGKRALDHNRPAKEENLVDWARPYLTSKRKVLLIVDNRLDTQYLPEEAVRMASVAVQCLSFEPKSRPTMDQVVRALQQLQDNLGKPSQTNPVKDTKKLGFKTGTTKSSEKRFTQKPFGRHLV
Experiment: pull-down; recombinant MBP-PP2C38 and GST-BIK1 in column buffer (50 mM Tris pH 7.5, 50 mM NaCl, 0.2% IGEPAL CA-630), 4°C; MBP pull-down on amylose resin
Details: both partners purified

- binding result: binds
B1: recombinant MBP-PP2C38 (enzyme, Arabidopsis thaliana, UniProt Q9LHJ9 1-385, looked up)
chain: MVSSATILRMVAPCWRRPSVKGDHSTRDANGRCDGLLWYKDSGNHVAGEFSMSVIQANNLLEDHSKLESGPVSMFDSGPQATFVGVYDGHGGPEAARFVNKHLFDNIRKFTSENHGMSANVITKAFLATEEDFLSLVRRQWQIKPQIASVGACCLVGIICSGLLYIANAGDSRVVLGRLEKAFKIVKAVQLSSEHNASLESVREELRSLHPNDPQIVVLKHKVWRVKGIIQVSRSIGDAYLKKAEFNREPLLAKFRVPEVFHKPILRAEPAITVHKIHPEDQFLIFASDGLWEHLSNQEAVDIVNTCPRNGIARKLIKTALREAAKKREMRYSDLKKIDRGVRRHFHDDITVIVVFLDSHLVSRSTSRRPLLSISGGGDLAGPST
notes: PP2C38, protein phosphatase 2C of Arabidopsis thaliana (At3g12620); 'PP2C38 CDS was inserted between BamHI and SalI restriction sites of pMAL-c4E'; source: recombinant protein (PP2C38 CDS in pMAL-c4E, NEB)
